Test results taken from patent US20060099646A1, “Bret assay” (priority 2002, published 2006).

What was measured:
[1] = Precipitation / stability of diluted DeepBlueC substrate solution; type: physicochemical
Method: One of the problems associated with setting up an assay, such as, e.g. a high through-put screening (HTS) assay, is to prepare a suitable solution of the substrate, DeepBlueC™. If the stock solution of DeepBlueC™ is diluted to the relevant concentration for use in a BRET assay in D-PBS as recommended, it will form a precipitate within 10 to 20 minutes, making it virtually impossible to use for a HTS assay.
(§1) Assay: • 1. Dilution of DeepBlueC to 100 μM in 40% ethanol in D-PBS with 1000 mg/l L-Glucose (#14287) (light sensitive!!). The DeepBlueC™ stock solution comprises 1 mM DeepBlueC™ in 100% v/v EtOH.
(§2) The dilution of DeepBlueC in 40% ethanol/buffer is essential for the stability of DeepBlueC. If DeepBlueC is diluted in buffer alone, it will precipitate within 10 to 20 minutes, making it virtually impossible to use the assay in HTS mode. […] 100 μl of resuspended cells were transferred into wells in 96-well white optiplate plate • 3. 12 μl agonist was added. • 4. 5 μl of diluted DeepBlueC/well was added, and the plate was read.

renilla luciferase = experiment: Light emission from renilla luciferase after addition of DeepBlueC solution (FIG. 3)
Method: as §2

NK1 receptor = target: T1, NK1 receptor (Homo sapiens, UniProt P25103); experiment: BRET assay, NK1-Rluc / β-arrestin-2-GFP; type: cell-based; details: NK1 receptor (class B) coexpressed with β-arrestin mutant; versus WT; FIG. 2
T1 construct: expressed in transfected cells
Method: (§3) Cell Preparation for BRET Assay: • 1. 48 hrs after transfection with 2 μg receptor-Rluc DNA (e.g. NK1-Rluc or β2AR-Rluc) and 5 μg β-arrestin-2 DNA (e.g. the R393E; R395E mutant) (for assays with GRK also 2 μg GRK DNA, e.g. GRK-5) media was removed and cell washed 1× with PBS • 2. 1 ml 1× trypsin (T75 flask) was added and incubated 3-5 min at 37 C • 3. 10 mL complete media was added. • 4. Cells were transferred to tube and spun down (5 min, 800 rpm) • 5. Media was removed, and cells resuspended in 10 ml PBS and counted, spun down (5 min, 800 rpm) • 6. Resuspended in D-PBS with 1000 mg/l L-Glucose (#14287) to a density of 2×10^6 cells/ml • 7. Cells were left at room temperature for at least 30 min, to stabilize readings.
as §1
as §2, with “12 μl agonist was added. • 4.” left out
(§4) Antagonist: • 1. […] 6 μl of diluted DeepBlueC/well was added, and the plate read.

β2AR/Rluc receptor = target: T2, β2AR/Rluc receptor (Homo sapiens, UniProt P07550); experiment: β2AR internalization assay; type: cell-based; details: COS-7 cells, co-expressed with β2AR/Rluc; isopterenol 10 min at 37° C; versus WT β-arrestin; FIG. 1
T2 construct: expressed in transfected cells; host or cells: COS-7
Method: COS-7 cells in 75 cm^2 flask (3×10^6 cells/flask) were used for trasfection. β2AR/Rluc receptor (1.3 μg cDNA/flask) was coexpressed together with 6.5 μg GFP^2/β-arrestin 2, 6.5 μg GFP^2/β-arrestin R169E, 6.5 μg GFP^2/β-arrestin Lys 373 stop or 6.5 μg GFP^2/β-arrestin R393E, R395E. Receptor internalization assay was based on protocol described by Barak and Caron J Recept Signal Transduct Res 1995 January-March;15(14):677-90. At the end of transfection period (3-5 hours), cells were washed twice with PBS, trypsinesed and plated at a density of 2.5×10^5 cells per well in 12-well plates. After 48 hours, cells were washed once with assay medium (HEPES-modified DMEM with 0.1% BSA, pH 7.4) and serum-starved in the same medium for additional 2-3 hours before being stimulated with […] isopterenol for 10 min at 37° C. Stimulation was stopped by washing the cells with ice-cold PBS. Cells were then subjected to [^125I]-pindolol binding at 4° C. for 3 h and the fraction of internalized receptors determined relative to unstimulated cells. Non-specific binding was determined under the same conditions in the presence of 1 μM pindolol.

NK-1/Rluc receptor = target: T3, NK-1/Rluc receptor (Homo sapiens, UniProt P25103); experiment: NK-1 receptor internalization assay; type: cell-based; details: COS7 cells, co-expressed with NK-1/Rluc; 125I-SP 10 min at 37 C; versus WT β-arrestin; FIG. 1
T3 construct: expressed in transfected cells; host or cells: COS7
Method: COS7 cells in 75 cm^2 flask (3×10^6 cells/flask) were used for transfection. NK-1/Rluc receptor (2 μg cDNA/flask) was coexpressed together with 6 μg GFP/β-arrestin 2, 6 μg GFP^2/β-arrestin R169E, 6 μg GFP^2/β-arrestin Lys 373 stop or 6 μg GFP^2/β-arrestin R393E, R395E. At the end of transfection period (3-5 hours), cells were washed twice with PBS, trypsinased and plated at a density of 2.5×10^5 cells per well in 12-well plates. After 48 hours, cells were washed once with assay medium (HEPES-modified DMEM with 0.1% BSA, pH 7.4) and incubated in assay medium for at least 1 hour before being incubated with ^125I-labeled SP (30000 cpm/well) in 0.5 ml assay medium 10 min at 37 C. Cells were then transferred onto ice and washed twice with ice-cold PBS. Subsequently, the extracellular receptor-associated ligand was removed by washing once with 1 ml of acid solution (50 mM acetic acid and 150 mM NaCl, pH 2.8) for 12 min. The acid wash was collected to determine the surface-bound radioactivity, and the internalized radioactivity was determined after solubilizing the cells in 0.2 M NaOH and 1% SDS (NaOH/SDS) solution. Nonspecific binding for each time point was determined under the same conditions in the presence of 1 μM unlabeled agonist (SP). After subtraction of nonspecific binding, the internalized radioactivity was expressed as a percentage of the total binding.

β2AR receptor = target: T4, β2AR receptor (Homo sapiens, UniProt P07550); experiment: BRET assay, β2AR-Rluc / β-arrestin-2-GFP; type: cell-based; details: β2AR receptor (class A) coexpressed with β-arrestin mutant; versus WT; FIG. 2
T4 construct: expressed in transfected cells
Method: as §3, §1
as §2, with “12 μl agonist was added. • 4.” left out
as §4

T3 sequence (P25103 whole entry): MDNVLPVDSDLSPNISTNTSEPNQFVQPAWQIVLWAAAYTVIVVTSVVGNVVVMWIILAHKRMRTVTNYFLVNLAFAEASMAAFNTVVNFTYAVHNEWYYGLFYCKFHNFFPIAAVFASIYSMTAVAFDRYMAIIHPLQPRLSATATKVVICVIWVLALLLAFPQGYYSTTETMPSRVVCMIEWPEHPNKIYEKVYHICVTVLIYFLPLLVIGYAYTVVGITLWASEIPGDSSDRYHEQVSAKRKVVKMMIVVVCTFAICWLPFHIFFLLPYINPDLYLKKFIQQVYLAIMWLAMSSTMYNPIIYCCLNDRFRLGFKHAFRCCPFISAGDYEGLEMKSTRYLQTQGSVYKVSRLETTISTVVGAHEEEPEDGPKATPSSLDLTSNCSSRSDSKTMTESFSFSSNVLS
T1 sequence (P25103 whole entry, species assumed): as the sequence (P25103 whole entry) above

| Compound | stability of diluted solution ([1]; diluted in 40% ethanol in D-PBS with 1000 mg/l L-Glucose) | time to formation of precipitate ([1]; stock solution diluted in D-PBS / buffer alone, no ethanol) | stability of light emission signal (renilla luciferase; DeepBlueC dissolved in buffer with 0% ethanol) | stability of light emission signal (renilla luciferase; DeepBlueC dissolved in buffer with 6% ethanol) | stability of light emission signal (renilla luciferase; DeepBlueC dissolved in buffer with 40% ethanol) | specific BRET ratio (BRET signal) (NK1 receptor) | internalization of the β2AR (β2AR/Rluc receptor) | internalization of the NK1-R (NK-1/Rluc receptor) | specific BRET ratio (BRET signal) (β2AR receptor) |
| --- | --- | --- | --- | --- | --- | --- | --- | --- | --- |
| O=c1c(Cc2ccccc2)nc2c(Cc3ccccc3)[nH]c(-c3ccccc3)cn1-2 [DeepBlueC] | stable for hours | 10 to 20 min | rapidly decreases | rapidly decreases | stable for the duration of the experiment | – | – | – | – |
| human β-arrestin-2 373 stop mutant: truncated human β-arrestin-2 lacking clathrin and/or AP2 binding sites; used as GFP fusion | – | – | – | – | – | the effect is less pronounced | inhibiting the internalization | inhibiting the internalization | increasing the BRET signal significantly |
| human β-arrestin-2 R393E; R395E mutant: human β-arrestin-2 wherein amino acids 393 and 395 have been changed from arginine to glutamic acid; used as GFP fusion | – | – | – | – | – | the effect is less pronounced | inhibiting the internalization | inhibiting the internalization | increasing the BRET signal significantly |
